Experiment [1] addresses T1, human CD300LB on primary human macrophages (human, UniProt A8K4G0 18-201).
T1 sequence: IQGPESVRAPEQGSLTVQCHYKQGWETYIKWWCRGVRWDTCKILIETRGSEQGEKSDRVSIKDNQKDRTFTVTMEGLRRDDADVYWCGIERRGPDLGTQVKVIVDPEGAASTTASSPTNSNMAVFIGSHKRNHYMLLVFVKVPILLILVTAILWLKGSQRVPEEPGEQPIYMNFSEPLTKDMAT
The experiment in a line: flow cytometry, primary human macrophages donor 1278, 10 ug/mL antibody, isotype control subtracted. As to the method:
Human monocytes from various donors were isolated from whole blood using RosetteSep Human Monocyte Enrichment Cocktail (Stemcell technologies) and Ficoll centrifugation per manufacturer protocols. After lysing red blood cells with ACK lysing buffer, monocytes were resuspended in complete media (RPMI, 10% FBS, Pen/Strep, L-glutamine, HEPES, non-essential amino acid, Sodium pyruvate). To obtain macrophages from these isolated monocytes, 100 ng/ml human M-CSF and 8% v/v human serum were added to the cells for 5-7 days. Cells were counted on the day of the experiment and plated at 100,000 cells per well in a round-bottom 96 well plate. Cells were incubated with TruStain Fc block and 10 μg/mL antibody for 1 hour on ice before washing with 250 μL ice cold PBS twice. Cells were then incubated with the appropriate APC-conjugated secondary antibodies for 20 minutes in the dark on ice. Finally, cells were washed twice with ice cold FACS buffer and then resuspended in 100 μL FACS buffer containing 1% propidium iodide. Samples were immediately analyzed using a BD FACSCanto flow cytometer. The gMFI was calculated using FlowJo software minus the gMFI of the appropriate isotype control.
In general terms: A flow cytometer gives signals particle by particle.

Experiment [2] deals with T2, recombinant human CD300LB overexpressed on Jurkat cells (human, UniProt A8K4G0 18-201).
T2 construct: also called huCD300LB; huCD300LB-expressing Jurkat cells
T2 sequence: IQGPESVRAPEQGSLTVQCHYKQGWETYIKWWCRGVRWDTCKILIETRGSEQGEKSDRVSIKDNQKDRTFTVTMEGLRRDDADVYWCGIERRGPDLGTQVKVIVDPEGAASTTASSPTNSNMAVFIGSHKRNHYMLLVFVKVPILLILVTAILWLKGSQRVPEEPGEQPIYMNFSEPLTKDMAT
The experiment in a line: flow cytometry, geometric mean (APC-A), Jurkat cells overexpressing huCD300LB. Here is the method: Purified anti-CD300LB antibodies of the present disclosure were evaluated for their binding affinity to either Jurkat cells overexpressing recombinant huCD300LB or BaF/3 cells overexpressing recombinant muCD300LB. Binding of anti-CD300LB antibodies to the cells was determined as follows. Cells were harvested, washed, and labeled with propidium iodide for viability discrimination. After washing the cells with PBS, 1×10⁵ cells were aliquoted per well in 96-well U-bottom plates and incubated with 100 μL of purified anti-CD300LB antibody at various concentrations in FACS buffer (PBS+2% FBS). After this primary incubation, the supernatant was removed via centrifugation, the cells washed twice with 150 μL of ice-cold FACS buffer, and then incubated with the appropriate secondary antibody on ice for 30 minutes. Following the secondary antibody incubation, the cells were again washed twice with ice-cold FACS buffer and resuspended in a final volume of 200 L FACS buffer. Flow cytometry analysis was then performed using the FACSCanto system (BD Biosciences).
To determine affinity, antibodies at increasing concentrations were used to stain Jurkat cells overexpressing huCD300LB and geometric MFI values measured by the flow cytometer were analyzed on Prism (Graphpad) software.

Experiment [3] deals with T3, murine CD300LB-Fc (mouse).
T3 construct: mouse IgG2a-Fc fusion (R&D Systems); the entry is the whole fusion chain; also called mCD300LB; Mouse CD300LB-Fc
T3 chain: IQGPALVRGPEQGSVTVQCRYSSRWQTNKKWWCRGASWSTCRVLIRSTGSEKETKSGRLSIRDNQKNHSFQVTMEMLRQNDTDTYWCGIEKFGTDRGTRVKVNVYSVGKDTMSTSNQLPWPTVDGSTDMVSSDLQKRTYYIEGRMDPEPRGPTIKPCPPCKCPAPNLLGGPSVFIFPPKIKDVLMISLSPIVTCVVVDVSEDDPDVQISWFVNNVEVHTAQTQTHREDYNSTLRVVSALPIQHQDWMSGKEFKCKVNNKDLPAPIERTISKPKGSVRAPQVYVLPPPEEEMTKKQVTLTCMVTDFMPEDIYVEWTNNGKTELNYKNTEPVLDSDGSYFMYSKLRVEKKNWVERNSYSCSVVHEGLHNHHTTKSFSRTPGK
The experiment in a line: SPR (Carterra LSA), antibody immobilised, Fc fusion at 300 or 600 nM. As to the method: Binding of mouse anti-CD300LB IgG1 antibodies of the present disclosure to human and murine CD300 orthologs were evaluated by surface plasmon resonance (SPR) using a Carterra LSA instrument (Carterra, Salt Lake City, UT). […] A HC200M sensor chip (Carterra) was activated using the single channel flow cell with a 7-minute injection of a 1:1:1 mixture of 100 mM MES pH 5.5, 100 mM sulfo-NHS, 400 mM EDC (all reconstituted in MES pH 5.5; 100 μL of each mixed in vial immediately before running assay). After switching to the multi-channel array flow cell, the antibodies were injected over the activated chip in a 96-spot array for 10 minutes. The remaining unconjugated active groups on the chip were then blocked by injecting 1M Ethanolamine pH 8.5 (Carterra) for 7 minutes using the single channel flow cell. After priming with running buffer (HBS-TE, Carterra) with 0.5 mg/ml BSA (Sigma), the immobilized anti-CD300LB antibodies were tested for their ability to bind human and mouse recombinant CD300LB extracellular domains. Human CD300 family members and mouse CD300A were hIgG1-Fc fusions, while mouse CD300LB, mouse CD300C, mouse CD300D, and mouse CD300E were mouse IgG2a-Fc fusions (R&D Systems). Binding was assessed by injecting each analyte over the entire antibody array using the single channel flow cell. CD300 analytes were diluted to 300 nM or 600 nM in running buffer and injected in series without regeneration. Two or three buffer blanks were run between each mouse or human ortholog, respectively. Data were processed and analyzed using NextGenKIT high-throughput kinetics analysis software (Carterra).
Results of anti-CD300LB antibody binding to human CD300 family members is provided below in Table 7.

For experiment [4], the target named is T4, murine CD300LB stably expressed on Jurkat cells (mouse, UniProt Q3U497 18-209).
T4 construct: also called muCD300LB; mouse CD300LB
T4 sequence: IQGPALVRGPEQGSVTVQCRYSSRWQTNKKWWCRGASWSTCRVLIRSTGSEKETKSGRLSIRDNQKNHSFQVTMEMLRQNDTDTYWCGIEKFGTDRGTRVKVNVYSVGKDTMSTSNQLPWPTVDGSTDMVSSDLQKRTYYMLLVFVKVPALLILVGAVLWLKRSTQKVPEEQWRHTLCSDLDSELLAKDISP
Briefly: flow cytometry, stable Jurkat cells.

B1: anti-CD300LB antibody CD-07 (antibody, V domains shown)
VH: QVQLVQSGAEVKKPGASVKVSCKASGYTFTNYRMHWVRQAPGQGLEWMGWINPNSGGTIYAQKFQGRVTMTRDTSTSTVYMELSSLRSEDTAVYYCARDLDYWGQGTLVTVSS
VL: DIQMTQSPSSLSASVGDRVTITCQASQDISNYLNWYQQKPGKAPKLLIYGASSLQSGVPSRFSGSGSGTDFTLTISSLQPEDFATYYCQQSYSTPWTFGPGTKVEIK
In experiment [1], B1 registered a gMFI of 211000 gMFI.

B2: anti-CD300LB antibody CD-05 (antibody, V domains shown)
VH: QVQLVQSGAEVKKPGASVKVSCKASGYTFSRYYINWVRQAPGQGLEWMGWINPNSGGTNYAQKFQGRVTMTRDTSTSTVYMELSSLRSEDTAVYYCTTDQLRFGKTGPYYGMDVWGQGTTVTVSS
VL: DIQMTQSPSSLSASVGDRVTITCRASQNIGTYLNWYQQKPGKAPKLLIYAASSLQSGVPSRFSGSGSGTDFTLTISSLQPEDFATYYCQQSYSDTLTFGGGTKVEIK
A word on the EC50 (read off the curve): it is the concentration needed to bring the measured effect to its halfway point. In the case of B2, the 50% effective concentration (EC50 (read off the curve)) in experiment [2] was around 20 nM. In experiment [1], this molecule yielded a gMFI of 175000 gMFI.

B3: anti-CD300LB antibody CD-06 (antibody, V domains shown)
VH: QVQLVQSGAEVKKPGASVKVSCKASGYTFTTYAVHWVRQAPGQGLEWMGIVNPNSGGTNYAQKFQGRVTMTRDTSTSTVYMELSSLRSEDTAVYYCARDIVPMNNFYNYYYGMDVWGQGTTVTVSS
VL: DIQMTQSPSSLSASVGDRVTITCRASQSISSYLNWYQQKPGKAPKLLIYATSTLQSGVPSRFSGSGSGTDFTLTISSLQPEDFATYYCQQSYRIPYTFGQGTKVEIK
B3 registered a gMFI in experiment [1] of 169000 gMFI.

B4: anti-CD300LB antibody CD-01 (antibody, V domains shown)
VH: RVQLQQSGAELVRPGASVTLSCKASGFTFTDFEMHWVKKTPVHGLEWIGAIDPESGNTAYNQKFRGKATLTADKSSSTAYMELRYLTSEDSAVYYCTPLISGADYWGQGTTLTVSS
VL: DVVMTQSPLSLPVSLGDQASISCRSSQSLVHSDGNTYLYWYLQKPGQSPKLLIYKVSNRFSGVPDRFSGSGSGTDFTFKISRVGAEDLGVYFCSQSTHVPWTFGGGTKLEII
Consider B4, for which the “SPR binding (control subtracted)” value in experiment [3] turned out to be 29.

B5: anti-CD300LB antibody CD-02 (antibody, V domains shown)
VH: QVQLQQPGAELVRPGSSVKLSCQASGYTFTNYWMHWVRQRPIQGLEWIGNIDPSDSETHYNQKFKDRATLTVDKSSSTAYMQLSSLTSEDSAVYYCARSGVYDDEGGDYWGQGTTLTVSS
VL: ENVLTQSPAIMSASPGEKVTMTCSASSSVSYIHWYQQKSSTSPKLWIYDTSKLASGVPGRFSGSGSGNSYSLTISSMETEDVATYYCFQGSGYPLTFGAGTKLELK
Take B5: the binding result in experiment [4] is listed as “no binding (tested: 10 ug/mL)”.

These data come from patent US20240254227A1 (Alector, published 2024).
